Target: biotinylated recombinant human CLL-1 extracellular domain protein, isoform with lysine at amino acid position 244 (human) (UniProt Q5QGZ9)
Experiment: Exp 1 (= Octet, CLL-1-K244 of FIG. 12B); Exp 2: ND

Sequence of biotinylated recombinant human CLL-1 extracellular domain protein, isoform with lysine at amino acid position 244 (human) (Q5QGZ9 65-265): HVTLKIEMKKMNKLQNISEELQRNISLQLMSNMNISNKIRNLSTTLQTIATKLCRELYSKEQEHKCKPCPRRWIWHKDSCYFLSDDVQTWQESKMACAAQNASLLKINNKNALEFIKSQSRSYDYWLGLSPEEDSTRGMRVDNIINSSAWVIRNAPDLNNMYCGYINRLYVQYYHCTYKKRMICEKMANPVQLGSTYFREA

Kd: 127 pM
Substance: + Control
